The target of test [1] is T1, rHuman Erythropoietin R/Fc Chimera, CF (R&D Systems Cat#963-ER) (human, UniProt P19235 25-250).
T1 construct: Bought reagent; also called EPO R/Fc; EPO R; Fc part of the bought chimera not given
T1 sequence (looked up): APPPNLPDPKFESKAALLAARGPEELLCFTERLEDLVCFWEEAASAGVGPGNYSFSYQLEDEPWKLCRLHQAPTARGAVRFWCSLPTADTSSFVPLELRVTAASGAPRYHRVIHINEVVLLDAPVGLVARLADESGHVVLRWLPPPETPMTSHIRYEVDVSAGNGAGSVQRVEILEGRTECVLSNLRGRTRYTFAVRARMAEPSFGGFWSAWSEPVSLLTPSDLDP
Kind of test: MSD Multispot ECL, antigen spotted on plate, Fab 8.1 nM; blank spot 435.

Test [2] concerns the target T2, Recombinant Human DLL4 (R&D Systems Cat#1506-D4/CF) (human, UniProt Q9NR61 27-529).
T2 construct: Bought recombinant protein; also called rHuman DLL4; delta-like protein 4
The test is described as above.

Test [3] addresses T3, rHuman ErbB2/Fc Chimera, CF (R&D Systems Cat#1129-ER) (human, UniProt P04626 23-652).
T3 construct: Bought reagent; also called human epidermal growth factor 2 receptor; Fc part of the bought chimera not given
Described as above.

Test [4] has as its target T4, rHuman EGF R/Fc Chimera, CF (R&D Systems Cat#344-ER) (human, UniProt P00533 25-645).
T4 construct: Bought reagent; also called epidermal growth factor receptor; Fc part of the bought chimera not given
The description is as above.

The target of test [5] is T5, rHuman HGF R/c-MET/Fc Chimera, CF (R&D Systems Cat#358-MT/CF) (human, UniProt P08581 25-932).
T5 construct: Bought reagent; also called HGF R/Fc; hepatocyte growth factor receptor; Fc part of the bought chimera not given
Described as above.

In test [6] the target is T6, rHuman Notch-1/Fc Chimera, CF (R&D Systems Cat#3647-TK) (human, UniProt P46531 19-526).
T6 construct: Bought reagent; Fc part of the bought chimera not given
The description is as above.

Test [7] concerns the target T7, rHuman CD44/Fc Chimera, CF (R&D Systems Cat#3660-CD) (human, UniProt P16070 21-220).
T7 construct: Bought reagent; Fc part of the bought chimera not given
The test is described as above.

In test [8] the target is T8, rHuman IGF-1 sR, (IGF-1 sR), CF (R&D Systems Cat#391-GR) (human, UniProt P08069 31-932).
T8 construct: Bought soluble receptor; also called insulin-like growth factor-1 soluble receptor
The description is as above.

The target in test [9] is T9, Recombinant Human DLL4 (R&D Systems Cat#1506-D4/CF) (human, UniProt Q9NR61 27-524).
T9 construct: Bought from R&D Systems; also called rHuman DLL4; delta-like protein 4
Briefly: MSD multispot ECL, antigen spotted on plate, Fab 705 nM; blank spot 483.

Test [10] concerns the target T10, rHuman ErbB2/Fc Chimera, CF (R&D Systems Cat#1129-ER) (human, UniProt P04626 23-652).
T10 construct: Bought from R&D Systems; also called human epidermal growth factor 2 receptor (ErbB2); not shown: Fc of the bought chimera
Described as above.

The target of test [11] is T11, rHuman EGF R/Fc Chimera, CF (R&D Systems Cat#344-ER) (human, UniProt P00533 25-645).
T11 construct: Bought from R&D Systems; also called epidermal growth factor receptor (EGF R); not shown: Fc of the bought chimera
The description is as above.

Test [12] concerns the target T12, rHuman HGF R/c-MET/Fc Chimera, CF (R&D Systems Cat#358-MT/CF) (human, UniProt P08581 25-932).
T12 construct: Bought from R&D Systems; also called HGF R/Fc; hepatocyte growth factor receptor (HGF R/c-Met); not shown: Fc of the bought chimera
The test is described as above.

The target of test [13] is T13, rHuman Notch-1/Fc Chimera, CF (R&D Systems Cat#3647-TK) (human, UniProt P46531 19-526).
T13 construct: Bought from R&D Systems; not shown: Fc of the bought chimera
The test is described as above.

Test [14] concerns the target T14, rHuman P-Cadherin/Fc Chimera, CF (R&D Systems Cat#861-PC) (human, UniProt P22223 108-654).
T14 construct: Bought from R&D Systems; not shown: Fc of the bought chimera
The test is described as above.

Test [15] deals with T15, rHuman Erythropoietin R/Fc Chimera, CF (R&D Systems Cat#963-ER) (human, UniProt P19235 25-250).
T15 construct: Bought from R&D Systems; also called EPO R/Fc; Epo R/Fc chimera; not shown: Fc of the bought chimera
T15 sequence (looked up): T1 sequence (looked up)
The description is as above.

Test [16] concerns the target T16, rHuman P-Cadherin/Fc Chimera, CF (R&D Systems Cat#861-PC) (human, UniProt P22223 108-654).
T16 construct: Bought reagent; Fc part of the bought chimera not given
Kind of test: ECL Multispot (MSD) assay, antigen spotted on plate, 10 nM Fab; blank spot of this row 487.

Test [17] has as its target T17, rHuman ErbB2/Fc Chimera, CF (R&D Systems Cat#1129-ER) (human, UniProt P04626 23-652).
T17 construct: Bought reagent; also called human epidermal growth factor 2 receptor; Fc part of the bought chimera not given
The test is described as above.

For test [18], the target named is T18, rHuman CD44/Fc Chimera, CF (R&D Systems Cat#3660-CD) (human, UniProt P16070 21-220).
T18 construct: Bought reagent; Fc part of the bought chimera not given
The description is as above.

B1: Fab VH1-8_IGHD2-2*01_IGHJ6*01 & L12_IGKJ1*01 (Fab, V domains shown)
VH: QVQLVQSGAEVKKPGASVKVSCKASGYTFTSYDINWVRQATGQGLEWMGWMNPNSGNTGYAQKFQGRVTMTRNTSISTAYMELSSLRSEDTAVYYCARGGYCSSTSCYADYYYYYGMDVWGQGTTVTVSS
VL: not shown
Regarding B1, the ECL signal in test [1] stood at 660; in [2], 1550; in [3], 557; in [4] it was 560; in test [5] it was 551; in [6], 612. Also, the ECL signal in test [7] turned out to be 528; in test [8], 518.

B2: Fab VH1-46_IGHD3-10*01_IGHJ4*01 & B3_IGKJ1*01 (Fab, V domains shown)
VH: QVQLVQSGAEVKKPGASVKVSCKASGYTFTSYYMHWVRQAPGQGLEWMGIINPSGGSTSYAQKFQGRVTMTRDTSTSTVYMELSSLRSEDTAVYYCAREYYYGSGSYYNDYFDYWGQGTLVTVSS
VL: not shown
notes: Tested as a Fab made in E. coli; VH was cloned into Plasmid A (CH1 constant region, His6 and Flag tags); The kappa VL was cloned into Plasmid C (kappa CL)
B2: the ECL signal in test [9] came out at 981; in test [10], 671; in test [11], 692; in [12], 839; in test [13], 958; in test [14] it was 827. The same molecule came in with an ECL signal in test [15] of 4890.

B3: Fab VH1-46_IGHD6-6*01_IGHJ1*01 S102A/S103P/S104F (APF) & L6_IGKJ1*01 (Fab, V domains shown)
VH: QVQLVQSGAEVKKPGASVKVSCKASGYTFTSYYMHWVRQAPGQGLEWMGIINPSGGSTSYAQKFQGRVTMTRDTSTSTVYMELSSLRSEDTAVYYCAREEYAPFSAEYFQHWGQGTLVTVSS
VL: not shown
notes: Tested as a Fab made in E. coli; also called H:APF & L:wt; APF triple mutant
In the case of B3, the results for the ECL signal in test [16], in test [17] and in test [18] were 384, 381 and 363, respectively.

Values taken from patent US20120316071A1 (published 2012).
